B1: PCMTD2 (parent)
chain: FFIRTSDSFDKFDFCEPSFVTGNC

Variants of: B1
Experiment: protein stability index of a GFP-peptide fusion (GPS, HEK-293T) (PSI 1-6); higher = more stable
Conditions: c terminus: a fixed tail appended
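Note: lentivirally expressed fusions sorted by FACS into six bins by GFP to DsRed ratio, PSI derived from sequencing read proportions per bin multiplied by bin number.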

Protein stability index: each site, then its substitutions
T21: I 2.9 | H 1.47 | A 2.61 | E 2.4 | D 1.71 | L 3.84 | P 3.61 | K 2.3 | N 2.27 | M 3.19 | G 3.28 | Q 2.22 | S 2.18 | V 3.86 | Y 2.49 | F 3.34 | W 2.76
D10: V 3.82 | W 3.23
N23: H 2.16 | E 2.27 | C 3.73 | I 2.13 | M 1.83 | K 1.75 | Y 1.61 | D 2.84 | L 3.54 | Q 3.51 | W 2.05 | V 2.89 | A 2.62 | S 2.54 | P 1.39 | T 2.7 | G 4.12 | R 2.88
F19: Q 1.91 | W 3.83 | R 2.21 | S 1.66 | K 1.95 | T 2.04 | C 1.49 | L 2.26 | Y 1.67 | D 2.11 | I 3.34 | E 1.67 | H 1.25 | M 1.68 | V 2.06 | G 2.16 | N 1.64 | A 1.69 | P 1.92
G22: R 1.87 | I 2.8 | A 2 | V 4.43 | F 1.68 | P 3.09 | L 2.03 | H 3.63 | W 3.23 | Q 2.74 | M 3.08 | K 2.1 | E 2.16 | S 2.07 | T 2.24 | C 2.71 | N 2.16 | Y 1.85
C15: K 2.43 | H 2.62 | W 2.31 | M 1.98 | F 3.17 | R 2.15 | S 2.04 | P 3.43 | T 2.3 | D 2.14 | Y 3.03 | A 2.24 | Q 3.22 | N 2.98 | L 3.34 | G 3.49 | I 3.14 | V 2.05 | E 2.06
C24: Q 2.85 | L 2.66 | P 1.74 | Y 2.53 | M 3.61 | S 2.78 | R 2.27 | T 2.24 | F 3.29 | H 2.43 | N 1.47 | D 1.64 | A 2.73 | G 2.09 | K 1.92 | E 2.04
F12: V 2.47 | T 2.22 | I 2.05 | R 1.77 | S 1.71 | D 1.69 | H 2.07 | L 3.58 | P 1.61 | Q 1.69 | A 2.4 | K 1.99 | G 2.05 | Y 2.79 | W 3.92 | N 1.61 | M 2.05 | E 1.92 | C 2.74
P17: F 2.3 | K 2 | C 2.42 | W 4.64 | S 2.03 | L 3.54 | V 4.75 | M 2.69 | H 3.52 | A 2.74 | N 2.05 | G 2.03 | I 2.35 | T 3.13 | D 1.47 | Q 2.51 | E 2.18 | Y 3.1
S18: K 3.26 | Y 2.11 | T 2.54 | F 2.02 | W 3.1 | E 2.4 | R 2.39 | L 4.02 | P 2.57 | N 2.91 | D 2.42 | C 3.71 | H 3.19 | I 2.48 | M 3.36 | G 2.81 | V 2.45 | A 1.76
D13: C 2.21 | E 2.74 | A 2.99 | R 2.26 | V 3.37 | H 2.47 | K 2.85 | F 3.38 | I 3.44 | Y 1.6 | L 3.27 | Q 3.23 | T 3.18 | M 2.65 | P 2.4 | S 2.57 | N 2.42 | G 2.78
E16: Q 2.02 | Y 3.4 | I 2.85 | M 3.1 | G 2.2 | W 3.77 | P 1.87 | K 3.41 | A 2.25 | S 2.04 | H 3.4 | D 2.87 | C 2.5 | F 2.04 | R 2.11 | V 2.9 | N 2.95
V20: R 2.53 | H 2.32 | K 1.86 | N 2.73 | M 2.5 | P 1.62 | D 1.76 | S 2.47 | T 2.58 | E 2.26 | Y 1.91 | I 2.54 | G 1.61 | Q 1.79 | A 2.2 | W 2.15 | F 3 | C 2.37 | L 3.22
K11: D 2.86 | H 2.24 | A 2.13 | N 2.42 | E 2.95 | G 2.57 | L 2.42 | V 3.4 | C 2.65 | T 2.84 | P 2.72 | R 3.1 | F 3.16 | M 4.28 | Q 3.58 | I 3.4 | W 3.22 | S 3.53 | Y 3.27
F14: A 2.31 | Q 1.89 | V 2.05 | R 2.37 | D 2.42 | G 1.82 | K 1.99 | S 1.84 | L 1.91 | Y 2.92 | T 2.5 | N 2.27 | P 2.55 | W 2.71 | I 2.31 | C 2.76 | M 2.1 | E 2 | H 1.94

— the supplement of paper PMC10567573
